Molecular target: T1, mouse MSR1 on RAW264.7 cells (mouse, UniProt P30204 1-458)
T1 construct: whole, on cells; also called MSR1 positive RAW264.7 cells
T1 sequence (looked up): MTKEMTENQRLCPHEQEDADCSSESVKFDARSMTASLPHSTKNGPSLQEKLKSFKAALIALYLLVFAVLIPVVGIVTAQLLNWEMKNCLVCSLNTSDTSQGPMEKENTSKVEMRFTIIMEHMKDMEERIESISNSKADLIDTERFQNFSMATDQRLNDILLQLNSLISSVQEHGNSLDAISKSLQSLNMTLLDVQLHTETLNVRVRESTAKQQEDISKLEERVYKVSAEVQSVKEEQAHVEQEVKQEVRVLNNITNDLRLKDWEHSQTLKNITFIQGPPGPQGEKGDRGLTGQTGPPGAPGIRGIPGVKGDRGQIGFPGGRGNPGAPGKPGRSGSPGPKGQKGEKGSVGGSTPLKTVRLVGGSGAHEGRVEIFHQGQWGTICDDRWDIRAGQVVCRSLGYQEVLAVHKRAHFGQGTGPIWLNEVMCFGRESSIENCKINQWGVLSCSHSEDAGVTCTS
Assay: flow cytometry, RAW264.7 cells
Protocol: To block binding to Fc receptors, RAW264.7 cells were incubated for 30 minutes at 4° C. with 500 pg/mL mouse IgG (Jackson ImmunoResearch, Cat #015-000-003) diluted in staining buffer, while B16F10.9 cells remained in staining buffer. […] The signal to noise (S/N) was determined by calculating the ratio of the anti-MSR1 antibodies or the control antibodies MFI to the unstained sample MFI (Table 11).

Binder	MFI	S/N (MFI over unstained MFI)
H1H21231N-N297Q (antibody, human IgG1, V domains shown, human IgG1 Fc with N297Q point mutation) VH: EVQLVESGGGLVQPGGSLRLSCAASGFTFSDHYMDWVRQAPGKGLEWVGRTRNKANSHTTEYTASVTGRFTISRDDSRNSLYLQMNSLKTEDTAVYYCVRAGIIGTLFDYWGQGTLVTVSS VL: DIQMTQFPSSLSASVGDRVTITCRASQSISSFLNWFQQKPGKAPKFLIYAASSLQSGVPSRFSGSGSGTDFTLTISSLQPEDFATYYCQQSYSSPPITFGQGTRLEIKR	3580 MFI	1
H1H27736P-N297Q (antibody, human IgG1, V domains shown, human IgG1 Fc with N297Q) VH: EVQLVESGGGLVQPGGSLRLSCAASGFTFSSYAMSWVRQAPGKGLEWVSSISGSGDSTFYTDSVKGRFTISRDISKNTLYLQMNSLRAEDTAVYYCAKDRLLWFGDLISPFHYWGQGTLVTVSS VL: EIVLTQSPGTLSLSPGERATLSCRASQSVSNIYLAWYQQKPAQAPRLLIYGASSRATGIPDRFSVSGSGTDFTLTISRLEPEDFAVYYCQQYGSSPRTFGQGTKVEIKR	3550 MFI	1
H1H27747P-N297Q (antibody, human IgG1, V domains shown, human IgG1 Fc with N297Q) VH: QVQLVESGGAVVQPGRSLRLSCAASGFTFSYYGMHWVRQAPGKGLEWVAVISYDGSKKYYADSVKGRFTISRDNSKNTLYLQMNSLRAEDTAVYYCAKDLTVDFYYGMDVWGQGTTVTVSS VL: DIQMTQSPSSVSASVGDRVTITCRASQGISSWLAWYQQKPGKAPKLLIYATSSLQSGAPSRFSGSGSGTDFTLTISSLQPEDFATYFCQQANSFPYTFGQGTKLEIKR	3630 MFI	1
H1H27749P-N297Q (antibody, human IgG1, V domains shown, human IgG1 Fc with N297Q) VH: QVQLQESGPGLVKPSETLSLTCTVSDGSISSYYWSWIRQPPGRGLEWIGFIYYSGSTSYNPSLKSRVTISVDTSMSQFSLKLRSVTAADTAVYYCARGSPFDYWGPGTLVTVSS VL: EIVLTQSPGTLSLSPGERATLSCRASQSVSSSYLAWYQQRPGQAPSLLISGASRRATGIPDRFSGSGSGTDFTLTIRRLEPEDFAMYYCQQYGSSPPTFGGGTKVEIKR	3790 MFI	1
H1H27754P-N297Q (antibody, human IgG1, V domains shown, human IgG1 Fc with N297Q) VH: EVQLVESGGGLVQPGGSLRLSCAASGFTFRTYAMTWVRQAPGKGLDWVSAITGDGGNTYYADSVKGRFTISRDNSKNTLYLQMNSLRAEDTAIYYCAKDQRFSFALYYFDYWGQGTLVTVSS VL: DIQMTQSPSSVSASVGDRVTITCRASQGISSWLAWYQQKPGNAPKLLIYAAFSLQSGVPSRFSGSGSGTDFTLTISSLQPEDFATYYCQQANNFPWTFGQGTKVEIKR	5410 MFI	1
H1H27771P2-N297Q (antibody, human IgG1, V domains shown, human IgG1 Fc with N297Q; also called H1H27771P-N297Q) VH: EVQLVESGGGLVQPGGSLRLSCAASGFTFSSYGMNWVRQAPGKGLEWVSVISGSGGSTYYADSVKGRFTISRDNSKNTLYLQMNSLRAEDTAVYYCAKDRWTYYYDSSGSPFDYWGQGTLVTVSS VL: not shown	–	1
H1H27773P2-N297Q (antibody, human IgG1, V domains shown, human IgG1 Fc with N297Q; also called H1H27773P-N297Q) VH: EVQLVESGGGLVQPGGSLRLSCAASGFTFSSYAMNWVRQAPGKGLEWVSAISGSGDSTYYADSVKGRFTISRDNSRTTLSLQLNSLRAEDTAVYYCAKDRLLWFGELGSPFHYWGQGTLVTVSS VL: not shown	–	1
H1H27778P2-N297Q (antibody, human IgG1, V domains shown, human IgG1 Fc with N297Q; also called H1H27778P-N297Q) VH: EVQLVESGGGLEQPGGSLRLSCAASGFTFSSYAMSWVRQAPGKGLEWVSVISGSGGYTNYADSVKGRFTISRDNSKNTLYLQMNRLRAEDSAVYYCARHNWNYDYYGMDVWGQGTTVTVSS VL: not shown	–	1
